How the values were obtained:
[1] = biological target: T1, von Willebrand factor (VWF) (Homo sapiens, UniProt P04275 P04275:764-2813); assay: filter; Bmax 54%; 2 mM CaCl2, 37 C; settings: tags: factor VIII free, Haematologic Technologies Inc; label: 5'-32P
Procedure: (§1) Affinity constants (Kd values) were determined using double-filter nitrocellulose filter binding assays (Rusconi et al, Thromb. Haemost. $4:841-848 (2000)). All binding studies were performed in binding buffer F (20 mM HEPES, pH 7.4, 150 mM NaCl, 2 mM CaCl₂, and 0.01% BSA) at 37° C. Human purified VWF (factor VIII free) was purchased from Haematologic Technologies Inc. (Essex Junction, Vt.) and used in the double-filter nitrocellulose filter binding assay to determine the Kd of the aptamers. Briefly, RNA were end-labeled at the 5′ end with T4 polynucleotide kinase (New England Biolabs, Beverly, Mass.) and [γ³²P] ATP (Amersham Pharmacia Biotech, Piscataway, N.J.) (Fitzwater and Polisky, Methods Enzymol. 267:275-301 (1996)). End-labeled RNA was diluted in binding buffer F, heat denatured at 65° C. for 5 minutes, and subsequently equilibrated at 37° C. Direct binding was performed by incubating trace ³²P-RNA with varying concentrations of VWF protein in binding buffer F at 37° C. for 5 min. The fraction of the nucleic acid-protein complex which bound to the nitrocellulose membrane was quantified with a phosphorimager (Molecular Dynamics, Sunnyvale, Calif.). Non-specific binding of the radiolabeled nucleic acid was subtracted out of the binding such that only specific binding remained (Wong and Lohman, Proc. Natl. Acad. Sci. USA 90:5428-5432 (1993)).

[2] = biological target: T1, von Willebrand factor (VWF); assay: filter; Bmax 56%; 2 mM CaCl2, 37 C; settings: tags: factor VIII free, Haematologic Technologies Inc; label: 5'-32P
Procedure: as §1

[3] = biological target: T1, von Willebrand factor (VWF); assay: filter; Bmax 55%; 2 mM CaCl2, 37 C; settings: tags: factor VIII free, Haematologic Technologies Inc; label: 5'-32P
Procedure: as §1

[4] = biological target: T1, von Willebrand factor (VWF); assay: filter; Bmax 71%; 2 mM CaCl2, 37 C; settings: Haematologic Technologies Inc, label: 5'-32P
Procedure: as §1

[5] = biological target: T1, von Willebrand factor (VWF); assay: filter; Bmax 87%; 2 mM CaCl2, 37 C; settings: Haematologic Technologies Inc, label: 5'-32P
Procedure: as §1

[6] = biological target: T1, von Willebrand factor (VWF); assay: filter; Bmax 13%; 2 mM CaCl2, 37 C; settings: tags: factor VIII free, Haematologic Technologies Inc; label: 5'-32P
Procedure: as §1

[7] = biological target: T1, von Willebrand factor (VWF); assay: filter; Bmax 88%; 2 mM CaCl2, 37 C; settings: Haematologic Technologies Inc, label: 5'-32P
Procedure: as §1

[8] = biological target: T1, von Willebrand factor (VWF); assay: filter; Bmax 73%; 2 mM CaCl2, 37 C; settings: tags: factor VIII free, Haematologic Technologies Inc; label: 5'-32P
Procedure: as §1

[9] = biological target: T1, von Willebrand factor (VWF); assay: filter; Bmax 83%; 2 mM CaCl2, 37 C; settings: Haematologic Technologies Inc, label: 5'-32P
Procedure: as §1

[10] = biological target: T1, von Willebrand factor (VWF); assay: filter; Bmax 67%; 2 mM CaCl2, 37 C; settings: tags: factor VIII free, Haematologic Technologies Inc; label: 5'-32P
Procedure: as §1

[11] = biological target: T1, von Willebrand factor (VWF); assay: filter; Bmax 49%; 2 mM CaCl2, 37 C; settings: tags: factor VIII free, Haematologic Technologies Inc; label: 5'-32P
Procedure: as §1

[12] = biological target: T1, von Willebrand factor (VWF); assay: filter; Bmax 57%; 2 mM CaCl2, 37 C; settings: tags: factor VIII free, Haematologic Technologies Inc; label: 5'-32P
Procedure: as §1

[13] = tags: factor VIII free human purified VWF

ACGAACUGCCCUCAGCUACUUUCAUGUUGCUGACGCACAGACGU (ssRNA, 2'-F C and U; 2'-OH A and G; 3' idT) [T25]
Kd [1]: 13.4 nM

B1: T25 vrt17 (ssRNA)
RNA: ACGAACUGCCCUCAGCUACUUUCAUGUUGCUGACGCACAGACGU
modifications: rAfCrGrArAfCmUrGfCfCfCfUfCrArGfCfUrAfCfUfUfUfCrAfUrGfUfUrGfCfUrGrAfCrGfCmAfCrArGrAfCrGfU-idT
Kd [2]: 23 nM

ACGAACUGCCCUCGCACUUUCAUGUGCGACGCACAGACGU (ssRNA, 2'-F C and U; 2'-OH A and G; 3' idT) [T38]
Kd [3]: 9.6 nM

ACGAACUGCCCUCGAUUUCGACGCACAGACGU (ssRNA, 2'-F C and U; 2'-OH A and G; 3' idT) [T60]
Kd ([4]; tags: factor VIII free): 12.5 nM

ACGAACUGCCCUCUUUUUUGACGCACAGACGU (ssRNA, 2'-F C9,C10,C11,C22,G23,C24; rest 2'-OMe; 3' idT) [T94 vrt7]
Kd [4, 13]: 29 nM

ACGAACUGCCCUCUUUUUUGACGCACAGACGU (ssRNA, 2'-F C and U; 2'-OH A and G; 3' idT) [T94]
Kd ([5]; tags: factor VIII free): 5 nM

B2: T15 (ssRNA)
RNA: GGGAGGUGGACGAACUGCCCUCAGCUACCAUGUUGCUGACGCACAGACGACUCGCUG
modifications: 2'-F C and U; 2'-OH A and G
Kd [6]: 83 nM

ACGAACUGCCCUCGAUCGACGCACAGACGU (ssRNA, rAfCrGmAmAmCfUmGfCfCfCfUmCmGmAmUmCmGrAfCrGfCrAmCmAmGmAfCrGfU-idT) [T59 vrt11]
Kd ([7]; tags: factor VIII free): 1.3 nM

ACGAACUGCCCUCGUAAGACGCACAGACGUUUUUU (ssRNA, mAmCmGmAmAmCmUmGfCfCfCmUmCmGmUmAmAmGmAfCrGfCmAmCmAmGmAmCmGfUmUmUmUmUmUidT) [DTRI-012]
Kd [8]: 5.5 nM

ACGAACUGCCCUCGAUCGACGCACAGACGU (ssRNA, 2'-F U7,C9,C10,C11,U12,C20,C22,U30; ribo A19,G21; rest 2'-OMe; 3' idT) [T59 vrt24]
Kd [9, 13]: 2.4 nM

ACGAACUGCCCUCGAUCGACGCACAGACGU (ssRNA, mAmCmGmAmAmCmUmGfCfCfCmUmCmGmAmUmCmGmAfCrGfCmAmCmAmGmAmCmGmUidT) [DTRI-008]
Kd [10]: 7 nM

ACGAACUGCCCUCGAUCGACGCACAGACGU (ssRNA, rAfCrGmAmAmCfUmGfCfCfCfUmCmGmAmUmCmGrAfCmGfCmAmCmAmGmAfCrGfU-idT) [T59 vrt3]
Kd [11]: 288 nM

ACGAACUGCCCUCGAUCGACGCACAGACGU (ssRNA, mAmCmGmAmAmCfUrGfCfCfCmUmCmGmAmUmCmGmAfCmGfCmAmCmAmGmAmCmGfU-idT) [T59 vrt16]
Kd [12]: 132 nM

B3: T11 (ssRNA)
RNA: GGGAGGACGAACUGCCCUCAGCUACUUUCAUGUUGCUGACGCACAGACGACUCGCUG
modifications: 2'-F C and U; 2'-OH A and G
Kd [1]: 16.5 nM

ACGAACUGCCCUAUUAUUACGCACAGACGU (ssRNA, 2'-F C and U; 2'-OH A and G; 3' idT) [T64]
Kd [6]: 54 nM

ACGAACUGCCCUCGUUUCAUCGACGCACAGACGU (ssRNA, 2'-F C and U; 2'-OH A and G; 3' idT) [T86]
Kd ([7]; tags: factor VIII free): 16 nM

ACGAACUGCCCUCGUUUCAUCGACGCACAGACGU (ssRNA, 2'-F C9,C10,C11,C24,G25,C26; rest 2'-OMe; 3' idT) [T86 vrt7]
Kd [7, 13]: 50 nM

ACGAACUGCCCUCGUUUCAUCGACGCACAGACGU (ssRNA, 2'-F C9,C10,C11,C24,C26; ribo G25; rest 2'-OMe; 3' idT) [T86 vrt4]
Kd [7, 13]: 12 nM

ACGAACUGCCCUCGAUCGACGCACAGACGU (ssRNA, mAmCmGmAmAmCmUrGfCfCfCmUmCmGmAmUmCmGmAfCrGfCmAmCmAmGmAmCmGfU-idT) [T59 vrt18]
Kd ([9]; tags: factor VIII free): 5.7 nM

B4: T90 vrt1 (ssRNA)
RNA: ACGAACUGCCCUCUAUUAUUUGACGCACAGACGU
modifications: 2'-F C2,U7,C9,C10,C11,U12,C24,C26,C32,U34; ribo A1,G3,G8,A23,G25,A27,G33; rest 2'-OMe; 3' idT
Kd [5, 13]: 0.9 nM

ACGAACUGCCCUCAGCAUUUCAUUGCUGACGCACAGACGU (ssRNA, 2'-F C and U; 2'-OH A and G; 3' idT) [T40]
Kd [1]: 11 nM

ACGAACUGCCCUCAGCACUUAUGUGCUGACGCACAGACGU (ssRNA, 2'-F C and U; 2'-OH A and G; 3' idT) [T41]
Kd [11]: 8.6 nM
